The target in the assay is T1, SNX9 BAR domain (Homo sapiens, UniProt Q9Y5X1).
T1 construct: different regions 1-595, 1-250, 250-361, and 392-595 of SNX9; expressed in transfected cells; host or cells: 293T (pEF-IRES-Puro expression vector)
Type of assay: cell-based.

Data on one substance can be found in patent US20230203107A1, “PEPTIDE FOR TREATING SEPSIS DERIVED FROM RV3364C PROTEIN OF MYCOBACTERIUM TUBERCULOSIS” (priority 2021, published 2023).

T1 sequence (Q9Y5X1 392-595): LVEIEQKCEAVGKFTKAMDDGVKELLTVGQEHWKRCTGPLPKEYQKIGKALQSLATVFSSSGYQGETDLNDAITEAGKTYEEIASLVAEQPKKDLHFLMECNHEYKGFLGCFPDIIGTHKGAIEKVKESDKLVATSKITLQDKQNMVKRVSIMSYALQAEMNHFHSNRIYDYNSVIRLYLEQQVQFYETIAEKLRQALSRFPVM

Consider “Rv3364c: Rv3364c protein of Mycobacterium tuberculosis, expressed in 293T cells from a Flag-tagged plasmid”, for which the “domain of SNX9 interacting with Rv3364c” value is “interacted with SNX9 through a Bin-Amphiphysin-Rvs (BAR) domain”.
